Measurements from patent US20130266576A1 (Novo Nordisk, published 2013).

T1: B-domain deleted factor VIII (FVIII) (human, UniProt P00451 20-759; P00451 1668-2351)
T1 sequence 1: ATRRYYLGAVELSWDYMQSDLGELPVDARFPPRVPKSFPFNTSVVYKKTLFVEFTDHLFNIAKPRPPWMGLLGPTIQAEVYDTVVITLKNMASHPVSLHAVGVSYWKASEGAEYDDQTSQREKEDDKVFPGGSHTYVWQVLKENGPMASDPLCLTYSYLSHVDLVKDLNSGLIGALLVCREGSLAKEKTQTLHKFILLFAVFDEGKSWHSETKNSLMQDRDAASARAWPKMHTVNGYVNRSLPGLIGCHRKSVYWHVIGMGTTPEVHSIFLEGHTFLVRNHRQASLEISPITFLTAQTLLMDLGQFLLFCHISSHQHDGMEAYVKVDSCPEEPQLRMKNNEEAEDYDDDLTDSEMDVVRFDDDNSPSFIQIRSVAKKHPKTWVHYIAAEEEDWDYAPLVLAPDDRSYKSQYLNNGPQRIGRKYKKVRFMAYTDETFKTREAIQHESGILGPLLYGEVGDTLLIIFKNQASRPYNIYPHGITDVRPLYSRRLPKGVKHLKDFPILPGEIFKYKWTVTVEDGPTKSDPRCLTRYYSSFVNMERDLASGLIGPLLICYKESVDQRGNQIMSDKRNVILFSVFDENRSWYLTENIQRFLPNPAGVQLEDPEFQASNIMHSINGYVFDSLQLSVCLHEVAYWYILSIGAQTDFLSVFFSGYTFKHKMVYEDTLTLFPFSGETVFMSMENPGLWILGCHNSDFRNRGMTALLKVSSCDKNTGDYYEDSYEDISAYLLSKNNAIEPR
T1 sequence 2: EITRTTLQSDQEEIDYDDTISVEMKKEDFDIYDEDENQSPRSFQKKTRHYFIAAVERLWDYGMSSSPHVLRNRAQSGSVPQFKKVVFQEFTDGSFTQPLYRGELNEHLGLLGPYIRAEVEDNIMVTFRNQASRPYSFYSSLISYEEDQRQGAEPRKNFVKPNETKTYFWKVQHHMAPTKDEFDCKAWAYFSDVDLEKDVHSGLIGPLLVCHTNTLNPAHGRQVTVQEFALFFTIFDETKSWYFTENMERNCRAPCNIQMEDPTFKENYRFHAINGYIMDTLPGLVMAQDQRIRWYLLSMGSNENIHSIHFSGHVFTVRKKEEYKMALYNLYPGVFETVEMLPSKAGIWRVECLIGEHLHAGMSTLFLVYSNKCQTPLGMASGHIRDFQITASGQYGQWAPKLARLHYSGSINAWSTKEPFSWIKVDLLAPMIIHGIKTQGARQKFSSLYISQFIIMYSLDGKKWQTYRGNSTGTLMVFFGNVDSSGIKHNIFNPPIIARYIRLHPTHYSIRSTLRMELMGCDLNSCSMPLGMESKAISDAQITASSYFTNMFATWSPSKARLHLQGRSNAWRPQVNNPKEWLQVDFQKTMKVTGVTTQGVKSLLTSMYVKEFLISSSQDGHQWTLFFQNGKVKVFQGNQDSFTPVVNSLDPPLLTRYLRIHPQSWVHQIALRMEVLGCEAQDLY


Experiments:
[1] = target: T1, B-domain deleted factor VIII (FVIII); test: cell-based or functional assay
[2] = target: T1, B-domain deleted factor VIII (FVIII); test: SPR (Biacore 3000), antibody captured by rabbit anti-mouse IgG, FVIII 0-40 nM as analyte, 25 C, 1:1 Langmuir fit
Experimental: (§1) The kinetics of FVIII binding to antibody was determined by surface plasmon resonance using a Biacore 3000 instrument. Each antibody was captured to a level of 70-110 RU in flow cell 2 of a CM5 chip coated with rabbit anti-mouse IgG antibody (GE Healthcare, Uppsala, Sweden) as described by the manufacturer. Kinetic analysis was performed at 25° C. at a flow rate of 30 μl/min in running buffer using flow cell 1 as reference. Serial two-fold dilutions of FVIII from 0 to 40 nM were analyzed. Following 3-min equilibration of the flow cells in running buffer, 150 μl FVIII were injected. The dissociation phase lasted 9 min and regeneration was performed with a 3-min pulse of 10 mM glycine, pH 1.7. The obtained reference-subtracted sensorgrams fitted well to a 1:1 Langmuir binding model which allowed for estimation of association (Kₒₙ) and dissociation (koff) rate constants and the equilibrium dissociation constant (Kd=koff/kₒₙ) using BIAevaluation 4.1 software (GE Healthcare, Uppsala, Sweden).
TABLE 2 Surface plasmon resonance analysis of the kinetics of FVIII binding to select antibodies. The listed antibodies were captured by immobilized rabbit anti-mouse IgG antibody and binding to FVIII were tested in concentrations ranging from 0 to 40 nM. Binding curves fitted well to a 1:1 Langmuir binding isotherm which provided estimates of association (kₒₙ) and dissociation (koff) rate constants. The dissociation constrant Kd was calculated as koff/kₒₙ. Standard errors obtained from the fits are shown.

[3] = target: T1, B-domain deleted factor VIII (FVIII); test: SPR (Biacore 3000), antibody captured by rabbit anti-mouse IgG, FVIII as analyte; Kd = koff/kon
Experimental: as §1
TABLE 2 Surface plasmon resonance analysis of the kinetics of FVIII binding to select antibodies. The listed antibodies were captured by immobilized rabbit anti-mouse IgG antibody and binding to FVIII were tested in concentrations ranging from 0 to 40 nM. […] The dissociation constrant Kd was calculated as koff/kₒₙ. […]

Binder | Maximal level of thrombin generation, fold-increase compared to FVIII [1] [fold] | Rate of thrombin generation, fold-increase compared to FVIII [1] [fold] | koff [2] [s⁻¹] | kon [2] [M⁻¹ s⁻¹] | Kd [3] [nM]
anti-FVIII 4F143 (antibody, mouse IgG1, V domains shown, Mouse monoclonal from hybridoma, murine IgG1 heavy chain and kappa light chain; also called Anti-FVIIIa 4F143) VH: QIQFVQSGPELKKPGETVKISCKASGYTFTNYGMNWVKQAPGKGLKWMGWINSYTGEPTYADDFKGRFAFSLETSASTAYLQINNLKNEDTATYFCARGASYAMDYWGQGTSVTVSS VL: DVQITQSPSYLAASPGETITINCRASKSISKYLAWYQEKPVKTNKLLIYSGSTLQSGIPSRFSGSGSGTDFTLTISSLEPEDFAMYYCQQHYEYPLTFGAGTKLELKR | 1.7 | 1.8 | 0.000849 | 244000 | 3.5
anti-FVIII 4F50 (antibody, mouse IgG1, V domains shown, Mouse monoclonal, murine IgG1 heavy chain and kappa light chain; also called Anti-FVIIIa 4F50) VH: QIQFVQSGPELKKPGETVKISCKASGYTFTNYGMNWVKQAPGKGLKWMGWINSYTGEPTYADDFKGRFDFSLETSASTAYLQINNLKNEDTATYFCARGASYAMDHWGQGTSVTVSS VL: DVQITQSPSYLAASPGETISINCRASKSISKYLAWYQEKPVKTNKLLIYSGSTLQSGIPSRFSGSGSGTDFTLTISSLEPEDFAMYYCQQHYEYPLTFGAGTKLELKR |  |  | 0.00106 | 190000 | 5.6
